The target in assay [1] is T1, Peptidylprolyl isomerase A (PPIA), also known as cyclophilin A (CypA), P62937. In words: method not stated; told in the description of FIG. 20.
Assay [2] has as its target T1, Peptidylprolyl isomerase A (PPIA), also …. In words: printed as 'Disrupts the complex AIF/Cyclophilin with a KD'; method not stated.

T1 sequence (P62937 whole entry): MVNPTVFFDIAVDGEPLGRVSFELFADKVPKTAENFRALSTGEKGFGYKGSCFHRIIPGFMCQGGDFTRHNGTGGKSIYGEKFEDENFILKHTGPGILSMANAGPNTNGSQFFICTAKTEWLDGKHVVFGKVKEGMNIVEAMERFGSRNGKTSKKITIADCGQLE

The Kd is a measure of binding affinity in units of concentration. Lower therefore signals higher affinity. Turning to GRKKRRQRRRAQSVGVSSGKLLIKLKDGRKVETDHI (modifications not checked) [TAT-AIF (370-394)], the Kd in assay [1] came to 12 µM; in assay [2], 5 µM.

Values taken from patent publication US20240109937A1, “BINDING PEPTIDES AND USES THEREOF” (The Johns Hopkins University, priority 2021, published 2024).
